Measurements reported in the supplement of paper PMC10065799, “High-throughput profiling of sequence recognition by tyrosine kinases and SH2 domains using bacterial peptide display” (eLife, 2023).

Key:
FGFR3 = FGFR3 (UniProt P22607); experiment: phosphorylation enrichment, bacterial display (enrichment ratio); higher = better substrate or ligand; peptides without Tyr show the background
FGFR1 = FGFR1 (UniProt P11362); experiment: as above
c-Src = experiment: as above
Fer (mouse) = experiment: as above
AncSZ = experiment: as above
Fyn = Fyn (UniProt P06241); experiment: as above
Jak2 = Jak2 (UniProt O60674); experiment: as above
Hck = Hck (UniProt P08631); experiment: as above
Hck, sequence (P08631 whole entry, looked up): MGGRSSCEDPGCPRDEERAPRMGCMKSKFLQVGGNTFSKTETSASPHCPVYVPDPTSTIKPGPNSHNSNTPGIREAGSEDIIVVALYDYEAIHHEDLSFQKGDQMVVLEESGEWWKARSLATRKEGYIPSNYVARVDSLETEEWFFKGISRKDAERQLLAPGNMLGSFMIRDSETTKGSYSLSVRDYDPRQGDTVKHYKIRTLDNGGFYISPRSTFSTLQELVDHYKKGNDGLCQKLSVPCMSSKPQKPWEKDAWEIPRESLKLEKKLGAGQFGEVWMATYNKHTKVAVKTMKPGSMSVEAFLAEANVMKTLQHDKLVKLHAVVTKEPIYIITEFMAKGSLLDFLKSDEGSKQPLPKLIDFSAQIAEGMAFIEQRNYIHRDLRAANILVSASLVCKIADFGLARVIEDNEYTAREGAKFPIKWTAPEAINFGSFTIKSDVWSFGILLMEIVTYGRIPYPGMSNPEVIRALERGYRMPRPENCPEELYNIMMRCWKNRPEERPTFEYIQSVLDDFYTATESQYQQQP

EPHB2 = EPHB2 (UniProt P29323); experiment: as above
MERTK = MERTK (UniProt Q12866); experiment: as above
MERTK, sequence (Q12866 whole entry, looked up): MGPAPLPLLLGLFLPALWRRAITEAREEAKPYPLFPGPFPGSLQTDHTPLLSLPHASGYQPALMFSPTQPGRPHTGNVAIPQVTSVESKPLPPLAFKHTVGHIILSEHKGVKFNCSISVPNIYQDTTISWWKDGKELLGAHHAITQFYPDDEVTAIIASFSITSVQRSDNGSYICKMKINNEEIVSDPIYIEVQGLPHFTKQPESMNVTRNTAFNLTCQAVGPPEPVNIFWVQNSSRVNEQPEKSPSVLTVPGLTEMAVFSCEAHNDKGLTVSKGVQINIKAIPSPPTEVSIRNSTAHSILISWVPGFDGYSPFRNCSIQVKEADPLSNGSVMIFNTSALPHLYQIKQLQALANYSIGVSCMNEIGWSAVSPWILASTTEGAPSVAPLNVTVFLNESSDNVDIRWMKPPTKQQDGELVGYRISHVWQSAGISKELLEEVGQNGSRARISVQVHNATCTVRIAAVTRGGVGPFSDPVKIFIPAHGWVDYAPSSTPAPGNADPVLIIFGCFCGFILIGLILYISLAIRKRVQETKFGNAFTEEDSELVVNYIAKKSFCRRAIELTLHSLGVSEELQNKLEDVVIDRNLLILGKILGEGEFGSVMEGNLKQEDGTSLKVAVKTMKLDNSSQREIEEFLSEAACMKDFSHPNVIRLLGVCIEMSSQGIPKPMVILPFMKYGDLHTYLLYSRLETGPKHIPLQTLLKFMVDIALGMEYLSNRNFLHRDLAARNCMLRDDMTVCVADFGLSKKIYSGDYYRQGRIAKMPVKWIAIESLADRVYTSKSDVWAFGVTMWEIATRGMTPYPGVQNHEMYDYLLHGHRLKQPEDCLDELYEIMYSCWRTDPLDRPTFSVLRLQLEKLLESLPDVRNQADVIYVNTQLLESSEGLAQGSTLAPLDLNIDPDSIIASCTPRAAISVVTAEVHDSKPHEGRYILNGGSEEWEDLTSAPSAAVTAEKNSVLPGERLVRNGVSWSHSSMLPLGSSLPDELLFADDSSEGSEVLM

Fes = Fes (UniProt P07332); experiment: as above
Fes, sequence (P07332 whole entry, looked up): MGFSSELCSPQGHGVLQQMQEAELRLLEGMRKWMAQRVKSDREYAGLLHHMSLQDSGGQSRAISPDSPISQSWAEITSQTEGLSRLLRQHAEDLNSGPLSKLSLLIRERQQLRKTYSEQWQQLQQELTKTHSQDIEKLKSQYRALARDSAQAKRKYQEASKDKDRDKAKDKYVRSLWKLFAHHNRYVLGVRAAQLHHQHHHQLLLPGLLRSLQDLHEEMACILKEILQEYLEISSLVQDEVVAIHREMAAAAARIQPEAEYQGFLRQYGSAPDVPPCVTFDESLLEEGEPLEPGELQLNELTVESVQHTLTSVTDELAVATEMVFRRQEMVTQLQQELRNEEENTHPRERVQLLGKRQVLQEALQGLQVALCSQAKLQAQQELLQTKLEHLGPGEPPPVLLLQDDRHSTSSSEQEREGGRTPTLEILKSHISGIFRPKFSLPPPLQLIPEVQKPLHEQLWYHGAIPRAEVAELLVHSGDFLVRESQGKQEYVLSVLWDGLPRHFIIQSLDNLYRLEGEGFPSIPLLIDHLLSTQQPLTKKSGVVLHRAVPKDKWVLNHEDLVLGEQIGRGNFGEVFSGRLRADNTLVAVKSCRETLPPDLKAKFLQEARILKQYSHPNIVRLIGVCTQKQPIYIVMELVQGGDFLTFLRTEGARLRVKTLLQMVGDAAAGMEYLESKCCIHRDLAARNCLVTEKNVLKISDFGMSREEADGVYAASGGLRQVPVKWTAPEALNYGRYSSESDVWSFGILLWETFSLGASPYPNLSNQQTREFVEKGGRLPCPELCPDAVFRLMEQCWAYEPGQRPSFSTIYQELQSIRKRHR

EPHB1 = EPHB1 (UniProt P54762); experiment: as above
EPHB1, sequence (P54762 whole entry, looked up): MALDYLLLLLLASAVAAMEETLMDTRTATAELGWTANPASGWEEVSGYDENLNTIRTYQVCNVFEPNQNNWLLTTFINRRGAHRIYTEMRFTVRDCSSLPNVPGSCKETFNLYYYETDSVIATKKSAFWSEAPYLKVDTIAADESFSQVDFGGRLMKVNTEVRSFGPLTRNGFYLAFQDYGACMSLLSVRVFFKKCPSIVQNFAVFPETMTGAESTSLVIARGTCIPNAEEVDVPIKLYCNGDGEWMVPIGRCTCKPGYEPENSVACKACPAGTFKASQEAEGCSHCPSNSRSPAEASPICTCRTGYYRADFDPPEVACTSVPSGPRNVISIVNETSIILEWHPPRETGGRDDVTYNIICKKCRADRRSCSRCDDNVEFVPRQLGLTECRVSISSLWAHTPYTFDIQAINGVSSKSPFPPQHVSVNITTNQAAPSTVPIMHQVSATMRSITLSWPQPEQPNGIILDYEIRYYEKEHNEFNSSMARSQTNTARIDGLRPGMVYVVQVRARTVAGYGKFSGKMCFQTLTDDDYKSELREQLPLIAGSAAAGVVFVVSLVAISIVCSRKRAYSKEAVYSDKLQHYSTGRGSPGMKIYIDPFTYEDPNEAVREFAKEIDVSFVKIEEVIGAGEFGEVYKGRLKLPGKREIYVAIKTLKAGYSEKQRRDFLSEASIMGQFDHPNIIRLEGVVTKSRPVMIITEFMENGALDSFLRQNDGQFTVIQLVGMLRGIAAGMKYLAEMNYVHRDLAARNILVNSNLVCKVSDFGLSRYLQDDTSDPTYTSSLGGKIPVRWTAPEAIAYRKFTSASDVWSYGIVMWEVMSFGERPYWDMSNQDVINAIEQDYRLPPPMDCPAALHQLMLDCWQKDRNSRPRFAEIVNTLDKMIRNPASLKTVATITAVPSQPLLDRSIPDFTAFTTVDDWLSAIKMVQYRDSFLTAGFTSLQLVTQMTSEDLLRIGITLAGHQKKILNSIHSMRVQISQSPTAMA

c-Abl (mouse) = experiment: as above
Grb2 SH2 = Grb2 SH2 (UniProt P62993); experiment: SH2 binding enrichment of the phosphorylated peptide, bacterial display (enrichment ratio); higher = better substrate or ligand; peptides without Tyr show the background
SHP2-C SH2 = experiment: as above
c-Src SH2 = experiment: as above
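Wherever SH2 binding enrichment of the phosphorylated peptide, bacterial display is given: peptide library displayed on the E. coli surface as eCPX fusions, selected cells deep-sequenced, score is each peptide's frequency after selection divided by its frequency in the input.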
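Wherever phosphorylation enrichment, bacterial display is given: 11-residue human phosphosite peptides and single-mutation variants displayed on the E. coli surface, counted by deep sequencing, each peptide's frequency after selection divided by its frequency in the unselected input library; frequency after pTyr selection over input frequency; kinase dosed for 20-30% of maximal phosphorylation in three min.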

FGFR3, sequence (P22607 whole entry, looked up): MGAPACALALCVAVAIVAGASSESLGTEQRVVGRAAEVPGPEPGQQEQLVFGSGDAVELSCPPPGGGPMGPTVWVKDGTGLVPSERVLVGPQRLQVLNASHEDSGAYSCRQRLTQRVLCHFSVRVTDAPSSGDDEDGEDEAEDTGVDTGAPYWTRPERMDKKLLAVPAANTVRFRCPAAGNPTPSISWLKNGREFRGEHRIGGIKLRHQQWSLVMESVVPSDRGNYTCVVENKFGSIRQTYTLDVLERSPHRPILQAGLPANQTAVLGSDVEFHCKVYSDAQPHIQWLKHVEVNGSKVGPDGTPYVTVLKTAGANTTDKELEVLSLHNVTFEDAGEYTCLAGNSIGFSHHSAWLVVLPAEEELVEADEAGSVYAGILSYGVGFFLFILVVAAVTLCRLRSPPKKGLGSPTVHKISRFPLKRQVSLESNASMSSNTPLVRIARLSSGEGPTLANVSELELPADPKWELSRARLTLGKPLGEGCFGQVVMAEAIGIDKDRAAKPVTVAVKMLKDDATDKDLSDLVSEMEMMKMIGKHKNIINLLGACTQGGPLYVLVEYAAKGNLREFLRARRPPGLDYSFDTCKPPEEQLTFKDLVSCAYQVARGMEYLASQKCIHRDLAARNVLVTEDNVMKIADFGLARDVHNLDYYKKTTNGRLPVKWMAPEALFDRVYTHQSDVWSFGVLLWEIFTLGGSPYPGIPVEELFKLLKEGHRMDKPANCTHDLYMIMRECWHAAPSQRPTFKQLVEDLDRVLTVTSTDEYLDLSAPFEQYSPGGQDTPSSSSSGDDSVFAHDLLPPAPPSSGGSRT
FGFR1, sequence (P11362 whole entry, looked up): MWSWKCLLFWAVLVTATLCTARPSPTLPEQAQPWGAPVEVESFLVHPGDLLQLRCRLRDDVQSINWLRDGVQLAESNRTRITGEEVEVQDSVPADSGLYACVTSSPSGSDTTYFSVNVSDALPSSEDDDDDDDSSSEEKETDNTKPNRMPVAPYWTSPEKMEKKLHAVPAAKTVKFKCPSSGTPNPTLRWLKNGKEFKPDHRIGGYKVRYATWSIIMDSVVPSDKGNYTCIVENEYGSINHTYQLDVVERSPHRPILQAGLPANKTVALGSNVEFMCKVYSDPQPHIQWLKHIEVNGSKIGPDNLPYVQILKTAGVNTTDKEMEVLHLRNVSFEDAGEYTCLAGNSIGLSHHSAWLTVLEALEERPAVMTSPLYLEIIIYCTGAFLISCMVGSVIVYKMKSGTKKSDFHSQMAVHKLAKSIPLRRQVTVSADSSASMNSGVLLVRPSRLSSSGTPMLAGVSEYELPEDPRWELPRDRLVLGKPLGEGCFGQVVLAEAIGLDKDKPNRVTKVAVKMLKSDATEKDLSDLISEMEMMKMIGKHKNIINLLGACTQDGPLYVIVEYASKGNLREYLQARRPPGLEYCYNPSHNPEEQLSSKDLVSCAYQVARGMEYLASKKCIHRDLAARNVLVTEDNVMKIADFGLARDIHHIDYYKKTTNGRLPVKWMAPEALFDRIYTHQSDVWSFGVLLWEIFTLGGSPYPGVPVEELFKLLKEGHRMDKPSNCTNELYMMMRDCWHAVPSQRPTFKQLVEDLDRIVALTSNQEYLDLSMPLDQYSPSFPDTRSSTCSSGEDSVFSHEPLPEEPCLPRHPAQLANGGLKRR

Sequence	SH2 binding enrichment (Grb2 SH2)	SH2 binding enrichment (SHP2-C SH2)	SH2 binding enrichment (c-Src SH2)	phosphorylation enrichment (FGFR3)	phosphorylation enrichment (FGFR1)	phosphorylation enrichment (c-Src)	phosphorylation enrichment (Fer (mouse))	phosphorylation enrichment (AncSZ)	phosphorylation enrichment (Fyn)	phosphorylation enrichment (Jak2)	phosphorylation enrichment (Hck)	phosphorylation enrichment (EPHB2)	phosphorylation enrichment (MERTK)	phosphorylation enrichment (Fes)	phosphorylation enrichment (EPHB1)	phosphorylation enrichment (c-Abl (mouse))
KGEDFYSVTCH [FHL1_Y149_C150S]	0.688	0.706	0.47	0.942	0.849	3.96	3.47	1.47	5.87	1.13	3.19	0.632	4.71	1.35	0.806	0.899
KGEDFYYVTCH [FHL1_Y149_C150Y]	0.636	0.565	0.412	1.69	1.35	0.774	0.71	1.35	0.692	1.43	0.724	0.729	1.32	1.43	0.802	1.11
KGIDRYNPENL [EIF3K_Y21]	0.861	0.785	0.524	0.564	0.493	0.358	0.372	0.583	0.42	0.449	0.384	0.446	0.414	0.736	0.349	0.456
KIKGRYEKCEP [KRT26_Y119_W118R]	1.67	1.9	1.81	1.17	0.562	0.579	0.584	0.808	0.412	1.37	0.546	0.526	0.478	1.13	0.614	1.25
KIVFVYVKKRS [DNAI2_Y7_E2K_YF]	1.27	1.13	0.856	0.731	0.466	0.428	0.478	1.06	0.425	0.925	0.449	0.48	0.354	0.966	0.439	0.576
KKHIPYREHKS [CSNK1G1_Y205]	1.99	2.1	1.88	3.18	1.31	1.46	1.81	1.76	0.888	3.87	1.19	1.25	1.03	2.94	1.84	3.25
KKIMGYSIRTI [IDS_Y490_I485K]	1.67	1.2	1.32	0.332	0.392	0.364	0.394	0.625	0.304	0.537	0.387	0.405	0.366	0.571	0.41	0.538

More lines, main results first:

SH2 binding enrichment (Grb2 SH2)	SH2 binding enrichment (SHP2-C SH2)	SH2 binding enrichment (c-Src SH2)	Sequence	phosphorylation enrichment (FGFR3)	phosphorylation enrichment (FGFR1)	phosphorylation enrichment (c-Src)	phosphorylation enrichment (Fer (mouse))	phosphorylation enrichment (AncSZ)	phosphorylation enrichment (Fyn)	phosphorylation enrichment (Jak2)	phosphorylation enrichment (Hck)	phosphorylation enrichment (EPHB2)	phosphorylation enrichment (MERTK)	phosphorylation enrichment (Fes)	phosphorylation enrichment (EPHB1)	phosphorylation enrichment (c-Abl (mouse))
1.12	3.1	2.23	KALSLYTKLMN [STAM_Y371_E366K]	0.872	0.555	0.393	0.588	1.36	0.46	1.14	0.537	0.774	0.446	1.32	0.673	0.605
1.12	0.734	0.861	KAVLHYKHQNQ [MTOR_Y1804_E1799K]	0.629	0.427	0.366	0.469	0.6	0.36	0.622	0.449	0.328	0.366	0.863	0.423	0.891
0.772	0.691	0.649	KDHPDYKFQLR [SOX10_Y171_P175L_YF]	0.633	0.478	0.512	0.65	0.798	0.409	0.698	0.406	0.492	0.454	0.824	0.49	0.512
1.02	1.02	0.503	KDPPDYKYQPR [SOX9_Y172_H169P]	0.479	0.461	0.538	0.421	0.837	0.51	0.663	0.353	0.518	0.375	0.788	0.489	0.747
0.853	0.408	0.411	KGEPQYSSHSS [SIPA1L3_Y1265]	0.421	0.298	0.496	0.45	0.515	0.554	0.57	0.295	0.317	0.429	0.547	0.327	0.498
0.719	0.614	0.473	KGSEGYLAATY [NF1_Y2503]	0.494	0.377	0.484	0.457	0.654	0.46	0.627	0.46	0.365	0.355	0.723	0.372	0.471
0.733	0.719	0.387	KHMADYPDFKF [SOX11_Y113_YF]	0.701	0.62	0.386	0.434	0.745	0.502	0.669	0.391	0.496	0.398	0.84	0.503	0.591
0.776	0.597	0.455	KIMVIYDGACQ [VWDE_Y1035_T1032M]	1.07	0.687	0.796	0.897	1.35	0.885	1.83	1.49	1.11	0.519	1.69	1.3	0.965
0.849	0.561	0.482	KLIETCFSKNF [PLP1_Y50_Y50C_YF]	0.725	0.47	0.476	0.504	1.14	0.413	1.06	0.492	0.523	0.405	1.23	0.581	0.826
